Measurements as given in publication PMC10630410, “Functional dissection of PRC1 subunits RYBP and YAF2 during neural differentiation of embryonic stem cells” (Nature Communications, 2023).

Biological target: T1, GST-RING1B (mouse, UniProt Q9CQJ4 1-336)
T1 construct: RING1B (Ring1b), the coding region amplified from mouse cDNA, in pGEX-4T; also called pGEX-4T-mRing1b; source: E. coli BL21 (DE3), purified (glutathione agarose); not shown: GST, N-terminal, kept
T1 sequence (looked up): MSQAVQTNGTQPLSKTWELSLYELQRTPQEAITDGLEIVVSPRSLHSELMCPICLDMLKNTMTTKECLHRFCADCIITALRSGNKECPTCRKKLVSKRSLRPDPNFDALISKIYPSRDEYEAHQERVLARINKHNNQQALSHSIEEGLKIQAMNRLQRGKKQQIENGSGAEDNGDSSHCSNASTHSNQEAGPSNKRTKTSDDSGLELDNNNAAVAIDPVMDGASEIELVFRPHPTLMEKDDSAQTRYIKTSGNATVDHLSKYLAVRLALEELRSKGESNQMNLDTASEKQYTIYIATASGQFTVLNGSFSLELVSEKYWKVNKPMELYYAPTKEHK
Assay: pull-down; same mixture as a3: purified His-mYAF2-mCherry (0, 100, 300 ng) with 300 ng purified GST-RING1B in the presence of mESC extract, PBS, 4 °C; read out as loss of RYBP from GST-RING1B
Settings: both partners purified

B1: His-mYAF2-mCherry (natural protein, mouse, UniProt Q99LW6 1-179, looked up)
chain: MGDKKSPTRPKRQPKPASDEGYWDCSVCTFRNSAEAFKCMMCDVRKGTSTRKPRPVSQLVAQQVTQQFVPPTQSKKEKKDRVEKDKSEKEAASKKNCHKKTRPRLKNVDRSSAQHLEVTVGDLTVIITDFKEKAKSAPASSAAGDQHSQGSCSSDSTERGVSRSSSPRGEASSLNGESH
notes: YAF2 (Yaf2), the coding region amplified from mouse cDNA, in pET-28a; also called His-YAF2; pET-28a-mYaf2-mCherry; source: E. coli BL21 (DE3), purified (Ni-NTA); not shown: His6, N-terminal, kept
B1: binds.
